Experimental findings from patent US20120316071A1 (published 2012) are described below.

Assay [1] addresses T1, rHuman EGF R/Fc Chimera, CF (R&D Systems Cat#344-ER) (human, UniProt P00533 25-645).
T1 construct: Bought protein; also called epidermal growth factor receptor
Put plainly: ECL multispot (MSD), antigen spotted; blank spot of this well 229.

The target of assay [2] is T2, rHuman HGF R/c-MET/Fc Chimera, CF (R&D Systems Cat#358-MT/CF) (human, UniProt P08581 25-932).
T2 construct: Bought protein; also called HGF R/Fc; hepatocyte growth factor receptor
T2 sequence (P08581 25-932, change not shown): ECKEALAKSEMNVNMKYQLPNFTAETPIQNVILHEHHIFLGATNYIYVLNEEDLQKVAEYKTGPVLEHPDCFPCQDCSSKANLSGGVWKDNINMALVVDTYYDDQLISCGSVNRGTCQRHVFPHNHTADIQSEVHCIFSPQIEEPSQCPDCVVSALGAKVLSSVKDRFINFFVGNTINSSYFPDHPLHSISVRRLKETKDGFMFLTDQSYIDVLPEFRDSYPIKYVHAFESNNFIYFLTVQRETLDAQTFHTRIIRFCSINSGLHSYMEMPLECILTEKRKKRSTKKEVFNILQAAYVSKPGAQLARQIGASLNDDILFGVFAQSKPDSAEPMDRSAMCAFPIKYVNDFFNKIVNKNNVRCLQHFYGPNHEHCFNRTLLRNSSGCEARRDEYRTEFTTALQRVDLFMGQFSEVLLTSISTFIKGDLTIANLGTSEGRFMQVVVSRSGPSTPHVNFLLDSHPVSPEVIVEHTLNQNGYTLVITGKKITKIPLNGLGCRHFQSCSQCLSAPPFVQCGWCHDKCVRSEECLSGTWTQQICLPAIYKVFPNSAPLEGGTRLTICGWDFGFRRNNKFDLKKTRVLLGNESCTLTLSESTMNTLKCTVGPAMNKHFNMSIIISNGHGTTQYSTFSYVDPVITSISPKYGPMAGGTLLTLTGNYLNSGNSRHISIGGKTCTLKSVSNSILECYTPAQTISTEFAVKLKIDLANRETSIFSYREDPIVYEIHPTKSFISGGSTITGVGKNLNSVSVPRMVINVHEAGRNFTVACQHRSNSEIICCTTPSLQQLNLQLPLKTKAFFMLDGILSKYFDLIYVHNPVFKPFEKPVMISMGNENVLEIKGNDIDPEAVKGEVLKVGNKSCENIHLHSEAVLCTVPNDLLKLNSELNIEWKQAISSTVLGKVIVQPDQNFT
The description is as above.

Assay [3] addresses T3, rHuman Notch-1/Fc Chimera, CF (R&D Systems Cat#3647-TK) (human, UniProt P46531 19-526).
T3 construct: Bought protein
Described as above.

For assay [4], the target named is T4, rHuman CD44/Fc Chimera, CF (R&D Systems Cat#3660-CD) (human, UniProt P16070 21-220).
T4 construct: Bought protein
The description is as above.

Assay [5] has as its target T5, rHuman IGF-1 sR, CF (R&D Systems Cat#391-GR) (human, UniProt P08069 31-932).
T5 construct: Bought soluble receptor; also called insulin-like growth factor-1 soluble receptor
The assay is described as above.

Assay [6] has as its target T6, rHuman P-Cadherin/Fc Chimera, CF (R&D Systems Cat#861-PC) (human, UniProt P22223 108-654).
T6 construct: Bought protein
The description is as above.

Assay [7] addresses T7, rHuman Erythropoietin R/Fc Chimera, CF (R&D Systems Cat#963-ER) (human, UniProt P19235 25-250).
T7 construct: Bought protein; also called EPO R; EPO R/Fc
T7 sequence (looked up): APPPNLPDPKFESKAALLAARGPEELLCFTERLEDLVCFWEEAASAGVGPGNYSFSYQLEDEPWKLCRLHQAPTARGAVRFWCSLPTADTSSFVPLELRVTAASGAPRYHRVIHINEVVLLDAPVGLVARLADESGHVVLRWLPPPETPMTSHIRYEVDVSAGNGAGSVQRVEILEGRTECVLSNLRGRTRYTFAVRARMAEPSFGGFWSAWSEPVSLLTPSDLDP
The assay is described as above.

Assay [8] addresses T8, Recombinant Human DLL4 (R&D Systems Cat#1506-D4/CF) (human, UniProt Q9NR61 27-524).
T8 construct: Bought recombinant protein; also called delta-like protein 4; rHuman DLL4
The assay is described as above.

Assay [9] has as its target T9, rHuman ErbB2/Fc Chimera, CF (R&D Systems Cat#1129-ER) (human, UniProt P04626 23-652).
T9 construct: Bought protein; also called human epidermal growth factor 2 receptor
The assay is described as above.

Assay [10] addresses T1, rHuman EGF R/Fc Chimera, CF (R&D …). Put plainly: ECL multispot (MSD), antigen spotted; blank spot of this well 287.
The target of assay [11] is T2, rHuman HGF R/c-MET/Fc Chimera, CF (R&D …). The assay is described as above.
The target of assay [12] is T3, rHuman Notch-1/Fc Chimera, CF (R&D …). The assay is described as above.
In assay [13] the target is T4, rHuman CD44/Fc Chimera, CF (R&D Systems …). The assay is described as above.
For assay [14], the target named is T5, rHuman IGF-1 sR, CF (R&D Systems …). The description is as above.
The target in assay [15] is T6, rHuman P-Cadherin/Fc Chimera, CF (R&D …). The assay is described as above.
In assay [16] the target is T7, rHuman Erythropoietin R/Fc Chimera, CF …. The assay is described as above.
The target in assay [17] is T8, Recombinant Human DLL4 (R&D Systems …). Described as above.
For assay [18], the target named is T9, rHuman ErbB2/Fc Chimera, CF (R&D …). The assay is described as above.
Assay [19] concerns the target T1, rHuman EGF R/Fc Chimera, CF (R&D …). Put plainly: ECL multispot (MSD), antigen spotted; blank spot of this well 209.
Assay [20] has as its target T2, rHuman HGF R/c-MET/Fc Chimera, CF (R&D …). Described as above.
Assay [21] concerns the target T3, rHuman Notch-1/Fc Chimera, CF (R&D …). The description is as above.
Assay [22] has as its target T4, rHuman CD44/Fc Chimera, CF (R&D Systems …). The description is as above.
Assay [23] concerns the target T5, rHuman IGF-1 sR, CF (R&D Systems …). The description is as above.
Assay [24] has as its target T6, rHuman P-Cadherin/Fc Chimera, CF (R&D …). The description is as above.
Assay [25] deals with T7, rHuman Erythropoietin R/Fc Chimera, CF …. The description is as above.
The target of assay [26] is T9, rHuman ErbB2/Fc Chimera, CF (R&D …). The description is as above.
The target of assay [27] is T1, rHuman EGF R/Fc Chimera, CF (R&D …). Put plainly: ECL multispot (MSD), antigen spotted; blank spot of this well 273.
Assay [28] has as its target T2, rHuman HGF R/c-MET/Fc Chimera, CF (R&D …). The assay is described as above.
The target in assay [29] is T3, rHuman Notch-1/Fc Chimera, CF (R&D …). The assay is described as above.
Assay [30] deals with T4, rHuman CD44/Fc Chimera, CF (R&D Systems …). The assay is described as above.
Assay [31] addresses T5, rHuman IGF-1 sR, CF (R&D Systems …). The description is as above.
Assay [32] concerns the target T6, rHuman P-Cadherin/Fc Chimera, CF (R&D …). Described as above.
Assay [33] has as its target T7, rHuman Erythropoietin R/Fc Chimera, CF …. The description is as above.
The target of assay [34] is T9, rHuman ErbB2/Fc Chimera, CF (R&D …). The description is as above.

B1: Fab VH1-46_IGHD6-6*01_IGHJ1*01 S102A/S103P/S104F (APF) & L6_IGKJ1*01 (Fab, V domains shown)
VH: QVQLVQSGAEVKKPGASVKVSCKASGYTFTSYYMHWVRQAPGQGLEWMGIINPSGGSTSYAQKFQGRVTMTRDTSTSTVYMELSSLRSEDTAVYYCAREEYAPFSAEYFQHWGQGTLVTVSS
VL: not shown
notes: Fab made in E. coli: VH cloned into Plasmid A (CH1, His6 and Flag tags), VL into Plasmid C (kappa CL); Template of the light chain NNK mutants; also called APF / parent; H:APF & L:wt
On to B1, for which the ECL signal in assay [1] is 363; in assay [2], 307; in [3] it was 398; in assay [4] it was 223; in assay [5], 223; in assay [6] it was 189. For the same molecule, the ECL signal in assay [7] worked out at 252; in assay [8], 2580; in assay [9], 331; in assay [10], 226; in assay [11], 344; in assay [12] it was 358. The ECL signal in assay [13] was determined as 205; in assay [14] it was 162; in assay [15], 250; in assay [16] it was 319; in [17] it was 2440; in [18] it was 317.

B2: Fab VH1-46_IGHD6-6*01_IGHJ1*01 S102A/S103P/S104F (APF) & L6_IGKJ1*01 R91G (Fab, V domains shown)
VH: QVQLVQSGAEVKKPGASVKVSCKASGYTFTSYYMHWVRQAPGQGLEWMGIINPSGGSTSYAQKFQGRVTMTRDTSTSTVYMELSSLRSEDTAVYYCAREEYAPFSAEYFQHWGQGTLVTVSS
VL: EIVLTQSPATLSLSPGERATLSCRASQSVSSYLAWYQQKPGQAPRLLIYDASNRATGIPARFSGSGSGTDFTLTISSLEPEDFAVYYCQQGSNWPPWTFGQGTKVEIKR
notes: Fab made in E. coli: VH cloned into Plasmid A (CH1, His6 and Flag tags), VL into Plasmid C (kappa CL); also called APF / R91G
Regarding B2, the ECL signal in assay [19] is 271; in [20] it was 239; in [21], 170; in assay [22], 163; in assay [23], 260; in assay [24], 235. Further, the ECL signal in assay [25] came to 306; in [26], 236.

B3: Fab VH1-46_IGHD6-6*01_IGHJ1*01 S102A/S103P/S104F (APF) & L6_IGKJ1*01 R91L (Fab, V domains shown)
VH: QVQLVQSGAEVKKPGASVKVSCKASGYTFTSYYMHWVRQAPGQGLEWMGIINPSGGSTSYAQKFQGRVTMTRDTSTSTVYMELSSLRSEDTAVYYCAREEYAPFSAEYFQHWGQGTLVTVSS
VL: EIVLTQSPATLSLSPGERATLSCRASQSVSSYLAWYQQKPGQAPRLLIYDASNRATGIPARFSGSGSGTDFTLTISSLEPEDFAVYYCQQLSNWPPWTFGQGTKVEIKR
notes: Fab made in E. coli: VH cloned into Plasmid A (CH1, His6 and Flag tags), VL into Plasmid C (kappa CL); also called APF / R91L
Take B3: the ECL signal is 367 in [27]; 255 in assay [28]; 383 in assay [29]; 236 in assay [30]; 382 in assay [31]; 437 in assay [32]. Also, the figures for the ECL signal in assay [33] and in assay [34] were 459 and 526, respectively.
